Results from the RNAGym collection of RNA variant scans (doi:10.1073/pnas.2313332121).

B1: TPR t1 (parent)
chain: GACCAAUCUGCCCUCAGAGCUCGAGAACAUCUUCGGAUGCAGAGGAGGCAGGCUUCGGUGGCGCGAUAGCGCCAACGUCCUCAACCUCCAAUGCAUCCCACCACAUGAUGAUGCCUGAAGAGCCUUGGUUUUUUG

Variants of: B1
Experiment: polymerase ribozyme fitness, log enrichment relative to wild type (log ratio); higher = more active; in vitro selection for triplet polymerase activity
In short: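 Each subunit of a heterodimeric triplet polymerase ribozyme was represented by a PCR-built, transcribed mutant library that underwent triplicate single-round in vitro selection with frozen incubation at −7 °C. Extended constructs were recovered by gel excision, streptavidin-bead capture and RT-PCR, and Illumina sequencing of input and output libraries kept genotypes with ≥10 input reads and ≥1 read per output. Fitness is the logarithm of genotype enrichment relative to wild-type enrichment, from inverse-variance-weighted replicate averages, with a logarithm base of 2.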

Row | Variant | polymerase ribozyme fitness (log ratio)
1 | C64U C98U G120U | -0.972
2 | G10U C13U C70A | -0.716
3 | G35C A95U C99U C104A A111C | -6.57
4 | A5U C11U U54A C89A | -2.83
5 | A29U C53U C79U A111C G120C | -3.26
6 | U9C U78G U81A | -0.22
7 | G36A G113U A119U | -4.19
8 | G61C U92A C98U C101U U106A U112G G120C | -7.61
9 | C28G G63A G93U C114A A118C | -7.47
10 | A27U U96C C124G | -1.73
11 | C4U G69C | -2.05
12 | U21C G61A C114U U125A | -1.45
13 | G52U C76A A105U | -3.02
14 | C3G U96C G113U | -6.42
15 | C12U C28U C49U C82A | -3.01
16 | A43C C72A U81C | -3.09
17 | G113U U116A | -4.64
18 | G42A G69A G93C | -6.98
19 | C49U A103C U112C | -3.22
20 | C11U C34G C89U A105C U106A | -4.08
21 | C22U U87A | -3.71
22 | C56G C101A | -1.08
23 | C22G A46C C62G A74U | -6.42
24 | G45A C53A U81C | -0.267

Row | Variant | polymerase ribozyme fitness (log ratio)
25 | C15U G39C | -1.93
26 | U78C A103G U109A C114A A119C | -6.28
27 | C8U U59G U96A G110U | -2.31
28 | A37U G60A | -0.626
29 | C49A C88A G113U A119U G128U | -6.41
30 | C53U G110C | -3.51
31 | U14G A50U G61C C86A | -4.54
32 | A5G A83U | -1.18
33 | G35C A43G G60A C62U C64G A84U C98U A111U A121U | -7.98
34 | C79U G110U G120C G122A | -4.4
35 | A6U G113C | -2.6
36 | C56U C97U | -0.00643
37 | C56G U109A G113C | -5.42
38 | U32C G36A U92A A105U C123A C124G | -5.91
39 | A2U A16G C72A | -3.41
40 | G45C G51A U78A C123G | -2.51
41 | G48A U54A C62U C82U C85A C104A | -2.99
42 | G69U A103C U131C | -1.05
43 | G77C G93A | -0.532
44 | U7G U96A A121C | 0.553
45 | A5C U9G C15G A43U A95U G110U | -4.99
46 | A18C G63C | -4
47 | C8A C64G C72U A121G | -6.31
48 | G17U C62G | -3.93

Row | Variant | polymerase ribozyme fitness (log ratio)
49 | G48U G110C | -4.65
50 | G60U A121U C124A U131G | -3.49
51 | A16U C124U U129G | 0.0068
52 | C79G C124G U125A | -4.24
53 | C40G C56U G128C | -3.4
54 | G51A A68C C70G C102U G110A | -5.98
55 | G57U C62G U112A | -2.56
56 | C20A A27U A43U | -5.37
57 | A84G G93U C101A | -3.07
58 | U7A C72A | -0.427
59 | C73U C115G U132A | -1.49
60 | C12A A18G C40U | -4.84
61 | G45A C53A U109G G110U A121U | -3.48
62 | C8G U87C A105C C124G | 0.541
63 | A37C G52A G69U C114G C123U | -2.89
64 | A84C C124U | 1.55
65 | A18U G113C | -3.57
66 | G58U C73A | -0.295
67 | G45U G113U | -3.73
68 | U32C G44A G61U U131G | -0.948
69 | U106A U109A | -3.73
70 | C22U C62A | -4.41
71 | C11U C53U G110A U129A | -3.35
72 | C13G G48C G63U A105C C124A | -4.22

Row | Variant | polymerase ribozyme fitness (log ratio)
73 | U14A C114U | -5.22
74 | C11A U116A | -4
75 | C56G G77A | -0.468
76 | A5U U9C C31U G39A G120U | -3.67
77 | A18G A41C A43G G57U | -4.59
78 | A41C G107C G117A | -6.25
79 | G17C G61U G93U C114A G127U | -6
80 | A50U C76G | -1.31
81 | C4G G44A G60C A111G | -3.78
82 | A66C U112C A119C | -1.53
83 | A43C G48A C56U G63A G113U U125C U131A | -6.28
84 | A5U C64U | -0.49
85 | U14G C72G | -2.44
86 | G57U U106G G128C | -3.98
87 | C13U C20U C72A C76A | -2.68
88 | U9G C62A U92A C104U | -4.41
89 | U54G C123G | 0.306
90 | G69U C94A C101G G120U | -1.15
91 | G44C C80U C88A | -2.94
92 | C20U G71C A75G C82U U87G A90U A105G G113U | -3.34
93 | A29C G71C A95U C124U | -4.83
94 | G47C A66U A119U A121U | -0.0171
95 | A6U G110U | -1.36
96 | C13U G51U C79G G127A | -2.92

Row | Variant | polymerase ribozyme fitness (log ratio)
97 | U54C A118G | -0.7
98 | C70U U81A C82G | -2.96
99 | A5U A6U A46C C104U C123A | 0.565
100 | A24G G58C A118U | -2.06
101 | G52A G60A | -0.303
102 | A50U G60U G117U | -4.36
103 | G52U G93A C114G | -4.8
104 | C22U A37U A100C | -5.02
105 | C13U A26U G69C | -4.28
106 | U78C U116G | -2.79
107 | C20A G42U G120A | -3.01
108 | C13G A37U | -1.57
109 | A50G C56G A103C C115G | -5.53
110 | G44U G47A G63C G120U U130G | -4.01
111 | U38G C80A C88U | -4.45
112 | G52U C82A A83U G127C | -2.33
113 | U9A G39C C94U | -0.376
114 | C53A G69U A105U | -0.0597
115 | C22G C76G | -3.73
116 | C20U C72U C98A | -5.82
117 | G69C C82A C97G U132A | -5.29
118 | A29G C72G C80G A105C C123G | -7.14
119 | A46G C86G | -1.96
120 | G36A C72G G110U | -4.37

Row | Variant | polymerase ribozyme fitness (log ratio)
121 | A26U U54A G110A | -5.04
122 | C70U A74G G120C | -1.57
123 | C13G G117U | -4
124 | C13U U132C | 0.0693
125 | G10C C99U | -4.44
126 | C11U U87G G113U | -4.06
127 | G45U C64U A121G G135A | 0.974
128 | G17C G35A C98U G120A | -5.26
129 | C97A C102U | -4.94
130 | C8G C11U G120A | 2.17
131 | C13U A29G G52A C102U | -4.34
132 | A18U G71C C104A | -6.56
133 | A2U U9C C12A G51U C53A U55A G61U U78C G127U | -6.49
134 | C11U G23A G110C U130G | -6.32
135 | C3U C8G G45U U54A C72U U87C U130A | -1.62
136 | A75U A95C U116C U125C | -3.04
137 | G19U A119G G128A | -3.71
138 | G60C C98G | -6.74
139 | C12G G19A C20U C98U | -3.29
140 | A50G C64U A84U | -0.379
141 | G48U C56A A105G A111G | -5.01
142 | U9G U14A G52C | -0.345
143 | A75G U112A U131A | 1.22
144 | A27G | -1.52

Row | Variant | polymerase ribozyme fitness (log ratio)
145 | A18U C86A C89U C123U | -3.07
146 | G36U A50C G60A | -2
147 | A6U U30C | -2.71
148 | G48U G57C U130C | 0.0456
149 | C4U C114A G128C | -4.42
150 | A26C G61A U96A | -5.9
151 | C94U C102U U126C | -2.66
152 | A27C C49U G61U U92C | -6.24
153 | G10A A16U A66C C88A U92C G120U | -3.94
154 | C56G C73A G93C | -4.53
155 | U30G A43U G45U G47A C49A C73A U106A A119G | -3.78
156 | C13U A18U G42C U87A C124U | 0.0751
157 | U9A G44C C70G | -4.48
158 | G39A C62A C89G C101U | -5.16
159 | U9G G48U U87G C115G | 0.077
160 | C72A G120A | 1.06
161 | C53U C73G G113C U132C | -3.47
162 | C34G G36A U96A C124U | -6.45
163 | C13A C49U G51U G69U A111U G120A | -6.99
164 | C70G U132G U133A | -2.52
165 | A6U C72U U96C G117U | -3.88
166 | C4G C8G U9G U21G U96G A111U | -3.56
167 | A26U C62U G71C G93A G120U | -3.6
